The text below walks through data of publication PMC3946040.

The target of experiment [1] is AspBHI, modification-dependent restriction endonuclease from Azoarcus sp. BH72 (Azoarcus sp. BH72). As to the kind of experiment: SEC. (In gel filtration, larger molecules generally elute earlier.)
Experiment [2] shares this target. The experiment in a line: crystal structure.

For the substance “AspBHI, modification-dependent restriction endonuclease from Azoarcus sp. BH72 (enzyme)”, the stoichiometry N in experiment [1] and in experiment [2] was 4 each time.
